Reference: patent US20260125457A1 (Janssen / Centocor, published 2026)

Legend:
[1] = molecular target: T1, CD3EG-HSA-6xHis (CD3W220.002) (human, UniProt P07766 22-118; P09693 23-103); test: SPR, forced degradation: Physiological
T1 construct: also called human CD3; not shown: human serum albumin (HSA); 6xHis tag

[2] = molecular target: T2, Flag/6xhis-CALRdel52 (CALRW12.007) (human, UniProt P27797 18-417); test: SPR, forced degradation: Physiological
T2 construct: also called human CALRdel52
T2 sequence (looked up): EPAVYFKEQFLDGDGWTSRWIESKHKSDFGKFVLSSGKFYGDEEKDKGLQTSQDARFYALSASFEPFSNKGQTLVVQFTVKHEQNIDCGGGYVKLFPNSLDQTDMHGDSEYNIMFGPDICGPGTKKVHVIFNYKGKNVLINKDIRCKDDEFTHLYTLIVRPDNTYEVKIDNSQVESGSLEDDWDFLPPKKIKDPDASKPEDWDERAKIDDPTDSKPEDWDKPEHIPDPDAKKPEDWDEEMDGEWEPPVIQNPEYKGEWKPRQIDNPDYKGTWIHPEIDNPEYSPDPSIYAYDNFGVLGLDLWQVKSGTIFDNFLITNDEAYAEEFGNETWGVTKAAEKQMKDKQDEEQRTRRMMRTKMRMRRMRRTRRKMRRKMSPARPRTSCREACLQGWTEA

[3] = molecular target: T3, Avi/his-CalR-Ins5 (CALRW28.004) (human, UniProt P27797 18-417, limits assumed); test: SPR, forced degradation: Thermal
T3 construct: also called human CALRins5
T3 sequence (looked up): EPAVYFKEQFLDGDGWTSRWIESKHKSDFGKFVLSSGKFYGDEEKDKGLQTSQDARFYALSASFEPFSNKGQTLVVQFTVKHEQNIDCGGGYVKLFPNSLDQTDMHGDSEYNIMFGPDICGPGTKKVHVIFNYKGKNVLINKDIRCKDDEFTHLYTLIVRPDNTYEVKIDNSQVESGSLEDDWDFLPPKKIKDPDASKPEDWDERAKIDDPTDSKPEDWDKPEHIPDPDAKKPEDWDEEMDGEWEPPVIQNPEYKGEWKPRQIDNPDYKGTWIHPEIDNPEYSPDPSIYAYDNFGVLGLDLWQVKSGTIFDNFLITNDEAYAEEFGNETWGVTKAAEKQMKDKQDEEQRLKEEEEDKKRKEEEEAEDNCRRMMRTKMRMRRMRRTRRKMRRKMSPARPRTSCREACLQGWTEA

[4] = molecular target: T1, CD3EG-HSA-6xHis (CD3W220.002); test: SPR, forced degradation: Thermal
[5] = molecular target: T2, Flag/6xhis-CALRdel52 (CALRW12.007); test: SPR, forced degradation: Thermal
[6] = molecular target: T3, Avi/his-CalR-Ins5 (CALRW28.004); test: SPR, forced degradation: pH 5.0
[7] = molecular target: T1, CD3EG-HSA-6xHis (CD3W220.002); test: SPR, forced degradation: pH 5.0
[8] = molecular target: T2, Flag/6xhis-CALRdel52 (CALRW12.007); test: SPR, forced degradation: pH 5.0
[9] = molecular target: T4, CALRdel52 (mutant calreticulin, 52 base pair deletion, Type 1) expressed with MPL on engineered cancer cells (UniProt P27797 18-417); test: cell-based or functional assay
T4 sequence (looked up): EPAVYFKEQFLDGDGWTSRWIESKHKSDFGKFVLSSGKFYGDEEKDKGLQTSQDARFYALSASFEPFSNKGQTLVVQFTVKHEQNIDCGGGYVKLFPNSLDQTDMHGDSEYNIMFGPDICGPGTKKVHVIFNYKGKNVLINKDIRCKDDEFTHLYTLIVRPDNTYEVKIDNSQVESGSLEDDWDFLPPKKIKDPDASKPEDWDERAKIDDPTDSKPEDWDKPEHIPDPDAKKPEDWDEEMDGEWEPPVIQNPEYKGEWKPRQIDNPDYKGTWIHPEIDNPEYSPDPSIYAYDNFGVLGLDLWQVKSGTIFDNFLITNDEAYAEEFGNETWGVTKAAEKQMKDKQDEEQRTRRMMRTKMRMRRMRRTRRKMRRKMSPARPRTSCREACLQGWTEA

[10] = molecular target: T5, CALRins5 (mutant calreticulin, 5 base pair insertion, Type 2) expressed with MPL on engineered cancer cells (UniProt P27797 18-417); test: cell-based or functional assay
T5 sequence (looked up): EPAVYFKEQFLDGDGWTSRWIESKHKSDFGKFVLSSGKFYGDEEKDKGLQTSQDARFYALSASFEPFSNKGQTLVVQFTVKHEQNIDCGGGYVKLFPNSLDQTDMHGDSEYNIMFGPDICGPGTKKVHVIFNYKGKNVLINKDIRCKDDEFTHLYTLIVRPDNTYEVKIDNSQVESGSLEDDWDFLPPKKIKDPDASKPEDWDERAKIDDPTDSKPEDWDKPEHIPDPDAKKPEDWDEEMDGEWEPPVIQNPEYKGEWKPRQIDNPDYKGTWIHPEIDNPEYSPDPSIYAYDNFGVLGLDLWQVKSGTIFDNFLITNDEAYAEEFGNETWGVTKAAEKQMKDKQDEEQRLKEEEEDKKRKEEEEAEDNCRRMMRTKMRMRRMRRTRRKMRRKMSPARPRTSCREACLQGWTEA

T1 sequence (P07766 other isoform, or with tags, fused parts or gaps): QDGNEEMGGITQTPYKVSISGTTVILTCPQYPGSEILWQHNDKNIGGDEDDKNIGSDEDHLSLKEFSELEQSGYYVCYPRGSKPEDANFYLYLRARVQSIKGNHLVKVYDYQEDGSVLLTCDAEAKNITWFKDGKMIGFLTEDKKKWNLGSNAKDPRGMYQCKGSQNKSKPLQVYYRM

% Active [1]: 96%
Kd [1]: 0.301 nM
% Active [2]: 98%
Kd [2]: 0.0171 nM
% Active [3]: 94%
Kd [3]: 0.0357 nM
% Active [4]: 94%
Kd [4]: 0.225 nM
% Active [5]: 98%
Kd [5]: 0.0664 nM
% Active [6]: 98%
Kd [6]: 0.0342 nM
% Active [7]: 100%
Kd [7]: 0.231 nM
% Active [8]: 103%
Kd [8]: 0.114 nM
B1: C3CRB73 CALRmut x CD3 bispecific antibody (bispecific antibody, human IgG1, kappa, L234A L235A)
heavy: EVQLLESGGGLVQPGGSLRLSCAVSGIDLSNNAISWVRQAPGKGLEYVGVIGNTGDTYYADSAKGRFTISRDSSKTTLYLQMNSLRAEDTAVYFCVRGPPSYSSSVKNIWGQGTLVTVSSASTKGPSVFPLAPSSKSTSGGTAALGCLVKDYFPEPVTVSWNSGALTSGVHTFPAVLQSSGLYSLSSVVTVPSSSLGTQTYICNVNHKPSNTKVDKKVEPKSCDKTHTCPPCPAPEAAGGPSVFLFPPKPKDTLMISRTPEVTCVVVSVSHEDPEVKFNWYVDGVEVHNAKTKPREEQYNSTYRVVSVLTVLHQDWLNGKEYKCKVSNKALPAPIEKTISKAKGQPREPQVYTLPPSREEMTKNQVSLSCAVKGFYPSDIAVEWESNGQPENNYKTTPPVLDSDGSFFLVSKLTVDKSRWQQGNVFSCSVMHEALHNRFTQKSLSLSPGK
light: DIQMTQSPSSVSASVGDRVTITCQSSQSVYNNNWLSWLQQKPGKAPKRLIYDASKLESGVPSRFSGSGSGTDFTLTISSVQPEDAATYYCAGGFTGNVYTFGGGTKVEIKRTVAAPSVFIFPPSDEQLKSGTASVVCLLNNFYPREAKVQWKVDNALQSGNSQESVTEQDSKDSTYSLSSTLTLSKADYEKHKVYACEVTHQGLSSPVTKSFNRGEC
scFv: DIQMTQSPSSLSASVGDRVTITCRARQSIGTAIHWYQQKPGCAPKLLIKYASESISGVPSRFSGSGSGTDFTLTISSLQPEDFATYYCQQSGSWPYTFGQGTKLEIKGGGSGGSGGCPPCGGSGGEVQLVESGGGLVKPGGSLRLSCAASGFTFSRYNMNWVRQAPGKGLEWVSSISTSSNYIYYADSVKGRFTFSRDNAKNSLDLQMSGLRAEDTAIYYCTRGWGPFDYWGCGTLVTVSSEPKSSDKTHTCPPCPAPEAAGGPSVFLFPPKPKDTLMISRTPEVTCVVVSVSHEDPEVKFNWYVDGVEVHNAKTKPREEQYNSTYRVVSVLTVLHQDWLNGKEYKCKVSNKALPAPIEKTISKAKGQPREPQVYTLPPSREEMTKNQVSLWCLVKGFYPSDIAVEWESNGQPENNYKTTPPVLDSDGSFFLYSKLTVDKSRWQQGNVFSCSVMHEALHNHYTQKSLSLSPGK
notes: IgG1-AAS; also called JNJ-88549968; CALRB421 Fab x CD3 spFv
T cell-mediated cytotoxicity EC50 (nM), ELF-153 MPL CALRdel52 [9]: 0.034 nM
T cell-mediated cytotoxicity EC50 (nM), OCI-M2 MPL CALRdel52 [9]: 0.61 nM
T cell-mediated cytotoxicity EC50 (nM), ELF-153 MPL CALRins5 [10]: 0.094 nM
T cell-mediated cytotoxicity EC50 (nM), OCI-M2 MPL CALRins5 [10]: 1.69 nM
